These results are taken from publication PMC3950705.

Series [1] deals with T1, hRev1 330-833 (core polymerase domain) (human, UniProt Q9UBZ9 330-833).
T1 sequence: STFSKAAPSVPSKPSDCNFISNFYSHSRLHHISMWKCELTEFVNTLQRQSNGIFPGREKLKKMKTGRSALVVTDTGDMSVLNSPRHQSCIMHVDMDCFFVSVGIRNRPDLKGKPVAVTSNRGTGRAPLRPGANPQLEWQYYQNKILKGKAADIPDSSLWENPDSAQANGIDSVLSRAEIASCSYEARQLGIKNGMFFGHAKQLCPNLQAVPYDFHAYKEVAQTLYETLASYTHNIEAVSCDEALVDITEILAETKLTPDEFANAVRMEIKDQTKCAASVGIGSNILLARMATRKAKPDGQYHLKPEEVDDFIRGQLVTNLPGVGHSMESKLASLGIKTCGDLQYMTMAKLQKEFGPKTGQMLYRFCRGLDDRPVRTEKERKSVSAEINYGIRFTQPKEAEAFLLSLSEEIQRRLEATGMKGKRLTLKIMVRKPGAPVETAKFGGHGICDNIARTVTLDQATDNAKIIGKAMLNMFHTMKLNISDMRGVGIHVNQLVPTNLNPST
The series can be described thus: fluorescence polarization.

Series [2] concerns the target T1, hRev1 330-833 (core polymerase domain). In words: stopped-flow fluorescence quenching.
Series [3] has the same target. The series can be described thus: stopped-flow fluorescence quenching. This is another data set of the same source.
The target is the same in series [4]. In words: DMS footprinting.

B1: 11/28-mer primer-template non-G4 DNA (mixed)
DNA 1: TATGTGACTATGCTGGGTAGGGGAGGAT
DNA 2: ATCCTCCCCTA
As a reminder, the Kd is the equilibrium constant for the complex coming apart. Lower therefore signals a tighter complex. For B1, the Kd in series [1] turned out to be 129 ± 20 nM.
TATGTGACTATGCTGGGTAGGGGAGGAT (ssDNA) [ss-non-G4 DNA 28-mer] returned a Kd in series [1] of 65.7 ± 8.8 nM.
The molecule TGGGTGGGTAGGGTGGGTAGGGGAGGAT (structured_DNA) [ss-G4 DNA 28-mer] had a Kd in series [1] of 15.7 ± 8.7 nM.

B2: 11/28-mer primer-template G4 DNA (mixed)
DNA 1: TGGGTGGGTAGGGTGGGTAGGGGAGGAT
DNA 2: ATCCTCCCCTA
B2 gave an equilibrium dissociation constant (Kd) in series [1] of 8.4 ± 2.5 nM.

B3: FAM/Dab 18/42-mer G4 DNA (mixed)
DNA 1: TGAGGGTGGGTAGGGTGGGTGCGTCTGCGGCTGGCTCGAGGC
DNA 2: GCCTCGAGCCAGCCGCAG
Turning to B3, the binding result in series [2] is “binds”.
TGAGGGTGGGTAGGGTGGGTGCGTCTGCGGCTGGCTCGAGGC (structured_DNA) [FAM/Dab 42-mer ss-G4 DNA (Myc2345 G14/23T)]: in series [3], the binding result is “binds”.

B4: 23/42-mer Myc2345 G14/23T primer-template (mixed)
DNA 1: TGAGGGTGGGTAGGGTGGGTGCGTCTGCGGCTGGCTCGAGGC
DNA 2: GCCTCGAGCCAGCCGCAGACGCA
Regarding B4, the binding result in series [4] is given as “binds”.
